Data: publication PMC7949139, “The molecular basis of OH-PCB estrogen receptor activation” (The Journal of Biological Chemistry, 2021)

How the values were obtained:
Assay type in all cases: biochemical, human
[1] = substrate: Oc1ccc2ccc3cccc4ccc1c2c34; experiment: Initial-rate studies (1-HP sulfonation; OH-PCB1 inhibition), F75A mutant; details: other: F75A; parentheses = one SD; pH 7.5; 25.0 °C
Description: (§1) C. Reaction progress was monitored via the fluorescence change associated with 1-HP sulfonation (λex = 325 nm, λem = 370 nm ([51], [52])). Initial rates were measured during conversion to product of ≤5% of the concentration-limiting substrate consumed at the reaction endpoint. Velocities were determined in triplicate. Km and kcat were obtained by (1/v^4)-weighted least-squares fitting of the averaged data in double-reciprocal space (i.e., 1/v versus 1/[S]) ([66], [67]).
(§2) Inhibition studies were performed as described above except: 1-HP was fixed (2.0 μM, 100 × Km), OH-PCBs were added (0.20–20 × Ki), and SULT1E1 was 0.20 nM (active sites). Ki was determined by least-squares fitting to a noncompetitive inhibition model ([66], [67]).

[2] = substrate: Oc1ccc2ccc3cccc4ccc1c2c34; experiment: Initial-rate studies (1-HP sulfonation; OH-PCB1 inhibition), Y239A mutant; details: other: Y239A; parentheses = one SD; pH 7.5; 25.0 °C
Description: as §1, §2

[3] = substrate: Oc1ccc2ccc3cccc4ccc1c2c34; experiment: Initial-rate studies (1-HP sulfonation; OH-PCB1 inhibition), double mutant; details: other: F80A/F75A; parentheses = one SD; pH 7.5; 25.0 °C
Description: as §1, §2

[4] = substrate: C[C@]12CC[C@@H]3c4ccc(O)cc4CC[C@H]3[C@@H]1CC[C@@H]2O; experiment: E2 sulfonation initial-rate assay ([3H]-E2), double mutant; details: other: F80A/F75A; parentheses = one SD; 25.0 °C
Description: SULT1E1-catalyzed conversion of [^3H]-E2 to [^3H]-E2-sulfate was quantitated as previously described ([68]). […] C. […] The reaction mixture was diluted tenfold with an E2 (10 μM), KPO4 (50 mM), pH 7.5 solution, and brought to pH 7.0 with HCl (6.0 N). The reaction was then mixed (1:1 v/v) with neat chloroform and centrifuged (15,000g, 5.0 min). The aqueous layer was removed, chloroform was extracted twice more, and radioactivity in the aqueous layer was then determined by liquid scintillation counting. Reactions were performed in triplicate and Km and kcat were obtained by (1/v^4)-weighted least-squares fitting of the data in double-reciprocal space (i.e., 1/v versus 1/[S]) ([67]).

[5] = substrate: Oc1ccc2ccc3cccc4ccc1c2c34; experiment: Initial-rate studies (1-HP sulfonation; OH-PCB1 inhibition), F80A mutant; details: other: F80A; parentheses = one SD; pH 7.5; 25.0 °C
Description: as §1, §2

B1: SULT1E1 F75A (Homo sapiens; F75A) (protein)
chain: MNSELDYYEKFEEVHGILMYKDFVKYWDNVEAFQARPDDLVIATYPKSGTTWVSEIVYMIYKEGDVEKCKEDVIANRIPFLECRKENLMNGVKQLDEMNSPRIVKTHLPPELLPASFWEKDCKIIYLCRNAKDVAVSFYYFFLMVAGHPNPGSFPEFVEKFMQGQVPYGSWYKHVKSWWEKGKSPRVLFLFYEDLKEDIRKEVIKLIHFLERKPSEELVDRIIHHTSFQEMKNNPSTNYTTLPDEIMNQKLSPFMRKGITGDWKNHFTVALNEKFDKHYEQQMKESTLKFRTEI
notes: E. coli codon-optimized SULT1E1 coding region inserted into the PreScission Protease cleavage site; His/GST/MBP triple tag (N, cleaved yes); made in house; host or cells: E. coli BL21(DE3)
Km [1]: 27 (1.7) nM | kcat [1]: 0.6 s⁻¹

B2: SULT1E1 Y239A (Homo sapiens; Y239A) (protein)
chain: MNSELDYYEKFEEVHGILMYKDFVKYWDNVEAFQARPDDLVIATYPKSGTTWVSEIVYMIYKEGDVEKCKEDVIFNRIPFLECRKENLMNGVKQLDEMNSPRIVKTHLPPELLPASFWEKDCKIIYLCRNAKDVAVSFYYFFLMVAGHPNPGSFPEFVEKFMQGQVPYGSWYKHVKSWWEKGKSPRVLFLFYEDLKEDIRKEVIKLIHFLERKPSEELVDRIIHHTSFQEMKNNPSTNATTLPDEIMNQKLSPFMRKGITGDWKNHFTVALNEKFDKHYEQQMKESTLKFRTEI
notes: as for B1
Km [2]: 25 (2.3) nM | kcat [2]: 0.633 s⁻¹

B3: SULT1E1 F80A/F75A (Homo sapiens; F75A/F80A) (protein)
chain: MNSELDYYEKFEEVHGILMYKDFVKYWDNVEAFQARPDDLVIATYPKSGTTWVSEIVYMIYKEGDVEKCKEDVIANRIPALECRKENLMNGVKQLDEMNSPRIVKTHLPPELLPASFWEKDCKIIYLCRNAKDVAVSFYYFFLMVAGHPNPGSFPEFVEKFMQGQVPYGSWYKHVKSWWEKGKSPRVLFLFYEDLKEDIRKEVIKLIHFLERKPSEELVDRIIHHTSFQEMKNNPSTNYTTLPDEIMNQKLSPFMRKGITGDWKNHFTVALNEKFDKHYEQQMKESTLKFRTEI
notes: as for B1
Km [3]: 28 (2.2) nM | kcat [3]: 0.583 s⁻¹ | Km [4]: 4.0 (0.2) nM | kcat [4]: 2.5 s⁻¹

B4: SULT1E1 F80A (Homo sapiens; F80A) (protein)
chain: MNSELDYYEKFEEVHGILMYKDFVKYWDNVEAFQARPDDLVIATYPKSGTTWVSEIVYMIYKEGDVEKCKEDVIFNRIPALECRKENLMNGVKQLDEMNSPRIVKTHLPPELLPASFWEKDCKIIYLCRNAKDVAVSFYYFFLMVAGHPNPGSFPEFVEKFMQGQVPYGSWYKHVKSWWEKGKSPRVLFLFYEDLKEDIRKEVIKLIHFLERKPSEELVDRIIHHTSFQEMKNNPSTNYTTLPDEIMNQKLSPFMRKGITGDWKNHFTVALNEKFDKHYEQQMKESTLKFRTEI
notes: as for B1
Km [5]: 23 (1.8) nM | kcat [5]: 0.583 s⁻¹
